We go through three substances from PMC9300677.

Test [1] has as its target GSK3β (UniProt Q9WV60). As to the kind of experiment: soluble-tubulin extraction assay, western blot quantification. To be noted: DIV15 neurons; n = 4 independent cultures per genotype; parent: est. 1.5; read off a plot.
The next test deals with GSK3α (UniProt Q2NL51). As to the kind of experiment: microtubule pelleting assay, western blot quantification. Conditions: re-polymerization of hippocampal tubulin from adult mice; n = 3 mice per genotype; parent: est. 0.30; read off a plot.
UniProt Q2NL51, sequence (Q2NL51 whole entry, looked up): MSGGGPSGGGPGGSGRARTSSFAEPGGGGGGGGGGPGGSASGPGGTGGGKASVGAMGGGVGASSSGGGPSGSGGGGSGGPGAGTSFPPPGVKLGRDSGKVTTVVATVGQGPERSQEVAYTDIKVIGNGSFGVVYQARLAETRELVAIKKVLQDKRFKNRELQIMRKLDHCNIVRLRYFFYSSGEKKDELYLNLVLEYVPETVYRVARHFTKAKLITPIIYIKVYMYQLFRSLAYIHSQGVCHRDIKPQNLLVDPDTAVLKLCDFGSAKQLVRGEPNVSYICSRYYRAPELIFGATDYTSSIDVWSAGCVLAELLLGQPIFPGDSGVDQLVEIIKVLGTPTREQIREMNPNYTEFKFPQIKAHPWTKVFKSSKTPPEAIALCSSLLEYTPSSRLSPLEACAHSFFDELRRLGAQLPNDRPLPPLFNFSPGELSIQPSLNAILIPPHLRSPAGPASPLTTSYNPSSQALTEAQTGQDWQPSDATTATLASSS
Test [2] concerns the target GSK3β (UniProt Q9WV60). Described as above. To be noted: re-polymerization of hippocampal tubulin from adult mice; n = 3 mice per genotype; parent: est. 0.40; read off a plot.
Test [3] has as its target microtubules of Tuba4aΔpolyGlu (p/p) mice, containing mutant Tuba4a without C-terminal polyglutamylation (mouse (endogenous in hippocampal neurons and hippocampus)) (UniProt P68368). As to the kind of experiment: soluble-tubulin extraction assay (TX-100 extraction); DIV15 hippocampal neurons extracted 90 s at 37 °C in MT-extraction buffer (80 mM PIPES pH 6.9, 0.3% Triton X-100, 150 mM NaCl); soluble and in-soluble (polymerized microtubules with associated MAPs) fractions compared by western blot.
UniProt P68368, sequence (P68368 whole entry, looked up, stated change not applied): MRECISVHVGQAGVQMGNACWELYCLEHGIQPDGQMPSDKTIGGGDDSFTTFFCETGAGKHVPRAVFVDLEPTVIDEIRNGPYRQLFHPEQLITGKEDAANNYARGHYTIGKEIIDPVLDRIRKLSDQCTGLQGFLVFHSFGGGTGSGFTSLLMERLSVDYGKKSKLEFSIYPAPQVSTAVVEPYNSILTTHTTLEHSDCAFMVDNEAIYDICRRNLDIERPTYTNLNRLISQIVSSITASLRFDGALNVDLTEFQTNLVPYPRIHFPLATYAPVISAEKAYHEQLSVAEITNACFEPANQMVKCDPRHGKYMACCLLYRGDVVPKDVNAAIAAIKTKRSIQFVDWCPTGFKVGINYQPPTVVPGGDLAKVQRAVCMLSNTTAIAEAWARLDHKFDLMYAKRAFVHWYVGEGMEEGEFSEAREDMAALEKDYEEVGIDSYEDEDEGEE

UniProt Q9WV60, sequence (Q9WV60 whole entry, looked up): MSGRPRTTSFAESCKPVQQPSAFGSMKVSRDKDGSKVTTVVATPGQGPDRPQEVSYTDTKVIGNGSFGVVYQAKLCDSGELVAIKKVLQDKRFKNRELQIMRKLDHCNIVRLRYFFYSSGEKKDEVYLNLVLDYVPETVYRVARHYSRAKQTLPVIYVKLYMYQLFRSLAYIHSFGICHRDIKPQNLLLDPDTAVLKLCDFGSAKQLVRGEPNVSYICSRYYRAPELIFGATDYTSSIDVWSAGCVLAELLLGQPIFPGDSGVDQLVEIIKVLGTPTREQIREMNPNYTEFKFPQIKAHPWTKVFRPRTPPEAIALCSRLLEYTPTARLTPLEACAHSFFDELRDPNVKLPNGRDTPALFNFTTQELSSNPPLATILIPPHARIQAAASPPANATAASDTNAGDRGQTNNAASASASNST

Regarding “microtubules of wild-type (+/+) mice, containing polyglutamylated Tuba4a (from UniProt P68368;Q9ERD7) Tuba4aΔpolyGlu (p/p)”, the other: in-soluble / soluble ratio with GSK3β [1] amounted to 0.73. Also, the other: pellet / supernatant ratio with GSK3α and in the test with GSK3β [2] was 0.15 in each case.

In the case of “MAP2a/b (from UniProt P20357 1-1828) (natural protein)”, the reduction of co-occurrence with microtubules in the in-soluble fraction against wild type (+/+) in test [3] is > 50%.

On to “Tau (mouse, endogenous) (from UniProt P10637 1-733) (natural protein)”, for which, in test [3], the reduction of co-occurrence with microtubules in the in-soluble fraction against wild type (+/+) was > 50%.
